Measured values from patent publication US20120156193A1 (IMMUNAS PHARMA, published 2012).

Molecular target: T1, A beta 1-40 oligomer (synthetic A beta1-40, HCl form, 0.1 mg/ml in PBS, incubated at 37 degrees C for one … (UniProt P05067 672-711))
T1 construct: domain: A beta 1-40; Non-fibrous assembly of many copies of the same peptide; also called A beta oligomer
Assay: SPR, Biacore 3000, A beta oligomer on CM5 chip, antibody as analyte
Description: The analysis was carried out by Surface Plasmon Resonance (SPR) using Biacore 3000 (GE Healthcare Sciences).

Row | Binder | Kd [nM] | koff [s⁻¹] | kon [M⁻¹ s⁻¹]
1 | IR-130 antibody (antibody, V domains shown, Mouse monoclonal from a hybridoma) VH: EVKLVESGGGLVQPGGSLKLSCATSGFTFSDYYMYWVRQTPEKRLEWVAYISNGGGSTYYPDTVKGRFTISRDNAKNTLYLQMSRLKSEDTAMYYCARGTSYGSSLHYYAMDYWGQGTSVTVSS VL: DVVMTQTPLSLPVSLGDQASISCRSSQSLVHSNGNTYLHWYLQKPGQSPKLLIYKVSNRFSGVPDRFSGSGSGTDFTLKISRVEAEDLGVYFCSQSTHVPLTFGAGTKLELK | 667 | 0.11 | 165000
2 | IR-103 antibody (antibody, V domains shown, Mouse monoclonal from a hybridoma) VH: DVQLVESGGGLVQPGGSRKLSCAASGFTFSSFGMHWVRQAPEKGLEWVAYISSGSSTIYYADTVKGRFTISRDNPKNTLFLQMTSLRSEDTAMYYCARSPLLRLQGLAYWGQGTLVTVSA VL: DVLMTQTPLSLPVSLGDQASISCRSSQSIVHSNGNTYLEWYLQKPGQSPKLLIYKVSNRFSGVPDRFSGSGSGTDFTLKISRVEAEDLGVYYCFQGSHVPPTFGGGTKLEIK | 43.9 | 0.00571 | 130000
3 | IR-148 antibody (antibody, V domains shown, Mouse monoclonal from a hybridoma) VH: DVQLVESGGGLVQPGGSRKLSCAASGFTFSSFGMHWVRQAPEKGLEWVAYISSGSSTIYYADTVKGRFTISRDNPKNTLFLQMTSLRSEDTAMYYCARDYYGMDYWGQGTSVTVSS VL: DVVMTQTPLSLPVSLGDQASISCRSSQSLVHSNGNTYLHWYLQKPGQSPKLLIYKVSNRFSGVPDRFSGSGSGTDFTLKISRVEAEDLGVYFCSQSTHVPLTFGAGTKLELK | 38.6 | 0.000931 | 24100

Now those with a lower Kd, led by results:

Row | Kd [nM] | koff [s⁻¹] | kon [M⁻¹ s⁻¹] | Binder
4 | 24.5 | 0.00232 | 94800 | IR-003 antibody (antibody, V domains shown, Mouse monoclonal from a hybridoma (BALB/c); constant regions are not) VH: QVTLKESGPGILQPSQTLSLTCSFSGFSLSTSGMGVSWIRQPSGKGLEWLAHIYWDDDKRYNPSLKSRLTISKDTSSNQVFLKITSVDTADTATYYCARRGEVRRRGYYAMDYWGQGTSVTVSS VL: DVVMTQTPLSLPVSLGDQASISCRSSQSLVHSNGNTYLHWYLQKPGQSPKLLIYKVSNRFSGVPDRFSGSGSGTDFTLKISRVEAEDLGVYFCSQSTHVPLTFGAGTKLELK
5 | 9.3 | 0.00252 | 271000 | IR-099 antibody (antibody, V domains shown, Mouse monoclonal from a hybridoma) VH: DVQLVESGGGLVQPGGSRKLSCAASGFTFSRFGMHWVRQAPEKGLEWVAYISSGRSTIYYADTVKGRFTISRDNPKNTLFLQMTSLRSEDTAMYYCARGGGNYVGAMDYWGQGTSVTVSS VL: DAVMTQTPLSLPVSLGDQASISCRSSQSLENSNGNTYLNWYLQKPGQSPQLLIYRVSNRFSGVLDRFSGSGSGTDFTLKISRVEAEDLGVYFCLQVTHVPPTFGGGTKLEIK
6 | 7.37 | 0.00188 | 255000 | IR-091 antibody (antibody, V domains shown, Mouse monoclonal from a hybridoma) VH: QVTLKESGPGILKPSQTLSLTCSFSGFSLSTSGMGVGWIRQPSGKGLEWLAHIWWDDDKYYNPSLKSQLTISKDTSRNQVFLKITSVDTADTATYYCARRGLRRGDYFDYWGQGTTLTVSS VL: DVLMTQTPLSLPVSLGDQASISCRSSQSIVHSNGNTYLEWYLQKPGQSPKLLIYKVSNRFSGVPDRFSGSGSGTDFTLKISRVEAEDLGVYYCFQGSHVPLTFGAGTKLELK
